Laboratory results published in the supplement of paper PMC10724198.
± gives the standard deviation of the averaged measurements.

Experiments:
Saccharomyces cerevisiae [1] = assay: protein stability index of tFT-peptide fusion in wild type (PSI (0-1 scale)); higher = more stable (slower turnover); conditions: genetic background: wild type
Description: (§1)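 MPS profiling in S. cerevisiae of two library types built from selected 12-aa C-degron peptides (IN1, IN2, LN1, LN3, VN2, R1-R5, W1-W3, Atg1 and Rpa12 C-termini): saturation mutagenesis libraries and C-terminal +1 capping libraries (13 aa). Each peptide is fused to the C-terminus of a sfGFP-mCherry timer, after a GGGS linker. Cells are FACS-sorted into 8 mCherry/sfGFP bins and sequenced. PSI runs from 0 (unstable) to 1 (stable), measured once in wild type and in the das1Δ or doa10Δ background.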

Saccharomyces cerevisiae [2] = assay: protein stability index of tFT-peptide fusion in deletion strain of DAS1 (PSI (0-1 scale)); higher = more stable (slower turnover)
Description: as §1

Saccharomyces cerevisiae [3] = assay: protein stability index of tFT-peptide fusion (C-terminal peptide) (PSI (0-1 scale)); higher = more stable (slower turnover); conditions: temperature: 30 C
Description: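 MPS profiling in S. cerevisiae of the yeast C-terminome library: the last 12 aa of each annotated ORF are fused to the C-terminus of a sfGFP-mCherry timer, after a GGGS linker. Cells are FACS-sorted into 8 mCherry/sfGFP bins and deep-sequenced. PSI runs from 0 (unstable) to 1 (stable); wild type and das1Δ backgrounds, two technical replicates each.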

[4] = genetic background: das1 deletion
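For protein stability index of tFT-peptide fusion in deletion strain of DAS1 in this document: PSI is a weighted mean of each variant's read distribution over the sorted stability bins, computed only for variants having over 10 reads in total.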
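For protein stability index of tFT-peptide fusion in wild type in this document: PSI derived as read-weighted mean over the 8 sorting bins, only variants exceeding 10 total reads kept, mCherry placed adjacent to the peptide and sfGFP distal.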

| Sequence | protein stability index (Saccharomyces cerevisiae [1]) | protein stability index (Saccharomyces cerevisiae [2]) | protein stability index (Saccharomyces cerevisiae [3]; [4]) | protein stability index (Saccharomyces cerevisiae [3]; genetic background: wild type) |
| --- | --- | --- | --- | --- |
| FSHRWTFRYWVN | 0.0512 | 0.568 |  |  |
| PDKRNHLIKLLP | 0.595 | 0.596 |  |  |
| FSMQWTFRYWVN | 0.0371 | 0.466 |  |  |
| FSMRWTFRLWVN | 0.028 | 0.291 |  |  |
| RLIQPLPVQQLN | 0.125 | 0.596 |  |  |
| PHKRNHLIKLLN | 0.141 | 0.694 |  |  |
| RVVYLSCVACIN | 0.0144 | 0.0603 |  |  |
| PDRRNHLIKLLN | 0.118 | 0.664 |  |  |
| KKHKKGQQQKIN | 0.162 | 0.571 |  |  |
| ARWRVGLWRGAG | 0.254 | 0.64 |  |  |
| PDKRNHLIKLLNI | 0.216 | 0.662 |  |  |
| LKILNQKMNHQN | 0.395 | 0.688 |  |  |
| FSLAASFWRVVG | 0.121 | 0.671 |  |  |
| PSLAASFWTVVG | 0.62 | 0.708 |  |  |
| KKHKKGQKRKIN | 0.275 | 0.655 |  |  |
| RLIQPLAVQFLN | 0.0616 | 0.6 |  |  |
| QRGAVGGWRLVG | 0.161 | 0.655 |  |  |
| AQWRVGLWRGAS | 0.499 | 0.709 |  |  |
| ARWRVGDWRGAS | 0.665 | 0.714 |  |  |
| PDKRNHLIKQLN | 0.0992 | 0.575 |  |  |
| LVVYLSCWACIN | 0.02 | 0.0504 |  |  |
| FSMRWTKRYWVN | 0.0745 | 0.545 |  |  |
| PDSRNHLIKLLN | 0.125 | 0.6 |  |  |
| RLIQYLPVQFLN | 0.0219 | 0.637 |  |  |

| Sequence | protein stability index (Saccharomyces cerevisiae [1]) | protein stability index (Saccharomyces cerevisiae [2]) | protein stability index (Saccharomyces cerevisiae [3]; [4]) | protein stability index (Saccharomyces cerevisiae [3]; genetic background: wild type) |
| --- | --- | --- | --- | --- |
| LVVYLSCDACIN | 0.144 | 0.191 |  |  |
| LVVYLSCVACWN | 0.0216 | 0.0568 |  |  |
| CTSCGYTFRTNN | 0.245 | 0.708 |  |  |
| PDKRNHLIKLLH | 0.154 | 0.612 |  |  |
| LVVYLSCVRCIN | 0.109 | 0.335 |  |  |
| ARWRVGLWRGASN | 0.658 | 0.689 |  |  |
| PDARNHLIKLLN | 0.12 | 0.612 |  |  |
| PSLAASFWQVVG | 0.465 | 0.692 |  |  |
| LQVYLSCVACIN | 0.0249 | 0.0994 |  |  |
| AMWRVGLWRGAS | 0.43 | 0.65 |  |  |
| VRGAVGGWDLVG | 0.664 | 0.656 |  |  |
| KGHKKGQKQKIN | 0.108 | 0.57 |  |  |
| GKILRQKMNHQN | 0.263 | 0.677 |  |  |
| PDKRNHLIKLSN | 0.486 | 0.609 |  |  |
| KKHKKGQKQKVN | 0.208 | 0.599 |  |  |
| ARWRVGVWRGAS | 0.304 | 0.686 |  |  |
| ARWRVGLWRGASY | 0.653 | 0.69 |  |  |
| ARWREGLWRGAS | 0.673 | 0.695 |  |  |
| LAILRQKMNHQN | 0.137 | 0.67 |  |  |
| RLIQILPVQFLN | 0.0377 | 0.546 |  |  |
| RLIQPLPVQFLNH | 0.646 | 0.661 |  |  |
| KKHKKGQKQQIN | 0.404 | 0.554 |  |  |
| LVVYLSQVACIN | 0.0161 | 0.0854 |  |  |
| LKILRQKMNQQN | 0.218 | 0.676 |  |  |

| Sequence | protein stability index (Saccharomyces cerevisiae [1]) | protein stability index (Saccharomyces cerevisiae [2]) | protein stability index (Saccharomyces cerevisiae [3]; [4]) | protein stability index (Saccharomyces cerevisiae [3]; genetic background: wild type) |
| --- | --- | --- | --- | --- |
| LVVYLSCVNCIN | 0.135 | 0.419 |  |  |
| VRGAVGGWRLVGG | 0.66 | 0.682 |  |  |
| VRGAVGGWRPVG | 0.667 | 0.671 |  |  |
| PMKRNHLIKLLN | 0.069 | 0.569 |  |  |
| VRGAVGGTRLVG | 0.63 | 0.673 |  |  |
| LKILRQKMNPQN | 0.689 | 0.677 |  |  |
| RLIDPLPVQFLN | 0.121 | 0.62 |  |  |
| FTAVLGTYLLTL [SDH3 C-terminal 12 aa] |  |  | 0.6494 ± 0.005 | 0.645 ± 0.0016 |
| IARPFELKYFGR [FCY21 C-terminal 12 aa] |  |  | 0.7199 ± 0.006 | 0.718 ± 0.001 |
| PIKEVLLENWDQ [PUS5 C-terminal 12 aa] |  |  | 0.715 ± 0.017 | 0.683 ± 0.024 |
| FLIHTPKHPPPT [POG1 C-terminal 12 aa] |  |  | 0.698 ± 0.011 | 0.725 ± 0.021 |
| DLQSLIESNGFA [PFK27 C-terminal 12 aa] |  |  | 0.689 ± 0.021 | 0.689 ± 0.026 |
| ISWLEKMKKFFH [MAM33 C-terminal 12 aa] |  |  | 0.7163 ± 0.0048 | 0.693 ± 0.009 |
| IRDAKFCDKHED [BOR1 C-terminal 12 aa] |  |  | 0.6971 ± 0.0014 | 0.671 ± 0.035 |
| YNGGGKKLDGFW [YSP3 C-terminal 12 aa] |  |  | 0.7015 ± 0.0059 | 0.691 ± 0.025 |
| LEPQESKPTIDH [AIM34 C-terminal 12 aa] |  |  | 0.697 ± 0.018 | 0.6899 ± 0.005 |
| TSQEINDRLEAL [PRE8 C-terminal 12 aa] |  |  | 0.666 ± 0.027 | 0.643 ± 0.0082 |
| EVPGWQEYYDKL [YOR133W; YDR385W C-terminal 12 aa] |  |  | 0.72 ± 0.018 | 0.71 ± 0.016 |
| DNNTVTANPTAR [YJR012C C-terminal 12 aa] |  |  | 0.7033 ± 0.0028 | 0.6523 ± 0.003 |
| RYAHIGGLHQRT [PRR2 C-terminal 12 aa] |  |  | 0.709 ± 0.01 | 0.686 ± 0.018 |
| TNEWCLFTPDSP [MLH2 C-terminal 12 aa] |  |  | 0.744 ± 0.018 | 0.7355 ± 0.005 |
| FFPFITIIFFHS [YCR024C-B C-terminal 12 aa] |  |  | 0.324 ± 0.026 | 0.299 ± 0.01 |
| NYPELPRLTFST [RFU1 C-terminal 12 aa] |  |  | 0.704 ± 0.018 | 0.691 ± 0.0092 |
| GPLLDYLSSDED [CWC2 C-terminal 12 aa] |  |  | 0.7139 ± 0.0039 | 0.693 ± 0.0055 |

| Sequence | protein stability index (Saccharomyces cerevisiae [1]) | protein stability index (Saccharomyces cerevisiae [2]) | protein stability index (Saccharomyces cerevisiae [3]; [4]) | protein stability index (Saccharomyces cerevisiae [3]; genetic background: wild type) |
| --- | --- | --- | --- | --- |
| RAVTPTGKKGRN [YOR296W C-terminal 12 aa] |  |  | 0.675 ± 0.035 | 0.6578 ± 0.0052 |
| AFKGHDNSDDKA [RIB2 C-terminal 12 aa] |  |  | 0.706 ± 0.017 | 0.666 ± 0.025 |
| QKLGIIGKNDLK [PSD1 C-terminal 12 aa] |  |  | 0.685 ± 0.029 | 0.709 ± 0.016 |
| PEMTRRGRGPRR [RPA49 C-terminal 12 aa] |  |  | 0.714 ± 0.022 | 0.673 ± 0.033 |
| RSLLRKSKPLQA [RPM2 C-terminal 12 aa] |  |  | 0.675 ± 0.024 | 0.639 ± 0.018 |
| AAEAKEHMQEAN [TIF34 C-terminal 12 aa] |  |  | 0.732 ± 0.062 | 0.69 ± 0.059 |
| IVNIKILRRNSR [LDB16 C-terminal 12 aa] |  |  | 0.796 ± 0.014 | 0.7813 ± 0.003 |
| MDNKQQLSSGRT [SNA3 C-terminal 12 aa] |  |  | 0.709 ± 0.016 | 0.686 ± 0.021 |
| LTMLPPMAPLLS [YMR158W-B C-terminal 12 aa] |  |  | 0.684 ± 0.021 | 0.653 ± 0.018 |
| ELASSILKELKL [KIN1 C-terminal 12 aa] |  |  | 0.707 ± 0.022 | 0.703 ± 0.054 |
| KLCTGIVWAPRV [YAR070C C-terminal 12 aa] |  |  | 0.681 ± 0.0084 | 0.7035 ± 0.0022 |
| DGWIPTRTDDVK [TAD1 C-terminal 12 aa] |  |  | 0.703 ± 0.008 | 0.707 ± 0.094 |
| ARAAAEYDCTVA [ATR1 C-terminal 12 aa] |  |  | 0.702 ± 0.013 | 0.7 ± 0.036 |
| NKVEAFKSLYTF [NUP60 C-terminal 12 aa] |  |  | 0.705 ± 0.028 | 0.591 ± 0.013 |
| SFTKSRIHLEFT [SPC105 C-terminal 12 aa] |  |  | 0.706 ± 0.024 | 0.69832 ± 2.3e-05 |
| NIAPFPFFGKRR [PMD1 C-terminal 12 aa] |  |  | 0.6837 ± 0.00075 | 0.674 ± 0.02 |
| VYENNSYPNSHT [RTT105 C-terminal 12 aa] |  |  | 0.6964 ± 0.0011 | 0.678 ± 0.023 |
| IPSIGKPKTIKI [BUD17 C-terminal 12 aa] |  |  | 0.672 ± 0.015 | 0.7017 ± 0.0033 |
| RNSGEKLVAVLK [YNL134C C-terminal 12 aa] |  |  | 0.691 ± 0.0088 | 0.6702 ± 0.0052 |
| CINCSRFIHNIN [YMR230W-A C-terminal 12 aa] |  |  | 0.70103 ± 0.00057 | 0.304 ± 0.013 |
| TAPLGKALHDLS [REE1 C-terminal 12 aa] |  |  | 0.687 ± 0.059 | 0.72 ± 0.059 |
| RYIRHLQQNVST [PHO4 C-terminal 12 aa] |  |  | 0.688 ± 0.016 | 0.683 ± 0.037 |
